Test results from patent US20210024646A1 (FUDAN UNIVERSITY, published 2021).
Numbering of substitutions follows the chain as printed. Several values for one entry are separate records, joined by “and”; a condition that tells them apart may be missing. Equal entries are not always repeated.

B1: Hu002c-6 (antibody, V domains shown)
VH: QVQLVQSGAEVKKPGASVKVSCKASGYTLTSYWMHWVRQAPGQGLEWIGEINPSQGRSNYNEKFKSRVTLTVDRSTSTVYMELSSLRSEDTAVYYCARRGVSGNYFDYWGQGTLVTVSS
VL: DIQMTQSPSSLSASVGDRVTITCKASQDINTYLSWFQQKPGKAPKSLIYRSNILVSGVPSRFSGSGSGQDYTLTISSLQPEDFATYYCLQYDEFPYTFGQGTKLEIK
notes: Humanized
B2: Hu002c-8 (antibody, V domains shown)
VH: B1 VH
VL: DIQMTQSPSSLSASVGDRVTITCKASQDINTYLSWFQQKPGKSPKSLIYRSNILVSGVPSRFSGSGSGQDYTLTISSLQPEDFAIYYCLQYDEFPYTFGGGTKLEI
notes: Humanized
B3: Hu002c-15 (antibody, V domains shown)
VH: B1 VH with R38K, Q39K, R67K
VL: B1 VL with A43S, Q100G
notes: Humanized
B4: Hu002c-3 (antibody, V domains shown)
VH: B1 VH with I48M, L70M, V72R, R74T
VL: B1 VL with A43S, Q100G
notes: Humanized
B5: Hu002c-14 (antibody, V domains shown)
VH: B1 VH with R38K, Q39K, R67K
VL: B1 VL
notes: Humanized
B6: Hu002c-16 (antibody, V domains shown)
VH: B1 VH with R38K, Q39K, R67K
VL: B2 VL
notes: Humanized
B7: Hu002c-4 (antibody, V domains shown)
VH: B1 VH with I48M, L70M, V72R, R74T
VL: B2 VL
notes: Humanized
B8: Hu002c-12 (antibody, V domains shown)
VH: B1 VH with R67K
VL: B2 VL
notes: Humanized
B9: Hu002c-2 (antibody, V domains shown)
VH: B1 VH with I48M, L70M, V72R, R74T
VL: B1 VL
notes: Humanized
B10: Hu002c-10 (antibody, V domains shown)
VH: B1 VH with R67K
VL: B1 VL
notes: Humanized
B11: Hu002c-11 (antibody, V domains shown)
VH: B1 VH with R67K
VL: B1 VL with A43S, Q100G
notes: Humanized
B12: Hu002c-7 (antibody, V domains shown)
VH: B1 VH
VL: B1 VL with A43S, Q100G
notes: Humanized
B13: Hu001c-22 (antibody, V domains shown)
VH: QVQLVQSGAEVKKPGASVKVSCKASGYTFTNYYIYWVKQRPGQRLEWIGWIYPGNLNIKYNEKFKGRVTITADKSASTAYMELSSLRSEDTAVYYCARDDNYAWFAYWGQGTLVTVSS
VL: DIQMTQSPSSLSASVGDRVTITCKASQDVSTAVAWYQQKPGKAPKLLIYWTNTRHTGVPSRFSGSGSGTDHTLTISSLQPEDFATYYCQQHYSTPFTFGQGTKLEIK
notes: Humanized
B14: Hu001c-30 (antibody, V domains shown)
VH: B13 VH with V68S, I70L
VL: B13 VL with H71F
notes: Humanized
B15: Hu001c-28 (antibody, V domains shown)
VH: B13 VH with A24T, R44G
VL: B13 VL with A43S
notes: Humanized
B16: Hu001c-24 (antibody, V domains shown)
VH: B13 VH with A24T, R44G
VL: B13 VL
notes: Humanized
B17: Hu001c-32 (antibody, V domains shown)
VH: B13 VH with V68S, I70L
VL: B13 VL
notes: Humanized
B18: Hu001c-31 (antibody, V domains shown)
VH: B13 VH with K38R, R40A, V68S, I70L
VL: B13 VL
notes: Humanized
B19: Hu001c-25 (antibody, V domains shown)
VH: B13 VH with K38R, R40A
VL: B13 VL with A43S
notes: Humanized
B20: Hu001c-23 (antibody, V domains shown)
VH: B13 VH with R44G
VL: B13 VL
notes: Humanized
B21: Hu001c-21 (antibody, V domains shown)
VH: B13 VH with K38R, R40A
VL: B13 VL
notes: Humanized
B22: mAb001c-VK-SGS (antibody, V domains shown)
VH: QVQLQQSGPELVKPGASVRISCKTSGYTFTNYYIYWVKQRPGQGLEWIGWIYPGNLNIKYNEKFKGKSTLTADKSSSTAFMQLSSLTSEDSAVYFCARDDNYAWFAYWGQGTLVTVSS
VL: DIVMTQSHKFMSTSIGDRVSITCKASQDVSTAVAWYQQKPGQSPKLLIYWTNTRHTGVPDRFTGSGSGTEHTLTISSVQAEDLALYYCQQHYSTPFTFGSGTTLEIK
B23: mAb002c-VH-QG/VK-SG (antibody, V domains shown)
VH: QVQLQQPGAELVKPGASVRLSCKASGYTLTSYWMHWVKKRPGQGLEWIGEINPSQGRSNYNEKFKSKATLTVDRSSSTVYMQLGSLTSEDSAVYYCARRGVSGNYFDYWGQGTTLTVSS
VL: DIKMTQSPSSMYASLGERVTMTCKASQDINTYLSWFQQKPGKSPKTLIYRSNILVSGVPSRFSGSRSGQDYYLTITSLEYEDMGIYYCLQYDEFPYTFGGGTKLELK
B24: mAb002c-VH-QG (antibody, V domains shown)
VH: B23 VH
VL: B23 VL with S56D
B25: mAb002c-VK-SG (antibody, V domains shown)
VH: B23 VH with Q55N
VL: B23 VL
B26: mAb002c-VH-NA (antibody, V domains shown)
VH: B23 VH with Q55N, G56A
VL: B23 VL with S56D

Target: T1, extracellular domain of human CD73 protein (CD73-ECD), C-terminus polyhistidine-tagged (human, UniProt P21589 27-547)
T1 construct: also called Human CD73-ECD; human recombinant CD73 enzyme (CD73 extracellular domain)
T1 sequence: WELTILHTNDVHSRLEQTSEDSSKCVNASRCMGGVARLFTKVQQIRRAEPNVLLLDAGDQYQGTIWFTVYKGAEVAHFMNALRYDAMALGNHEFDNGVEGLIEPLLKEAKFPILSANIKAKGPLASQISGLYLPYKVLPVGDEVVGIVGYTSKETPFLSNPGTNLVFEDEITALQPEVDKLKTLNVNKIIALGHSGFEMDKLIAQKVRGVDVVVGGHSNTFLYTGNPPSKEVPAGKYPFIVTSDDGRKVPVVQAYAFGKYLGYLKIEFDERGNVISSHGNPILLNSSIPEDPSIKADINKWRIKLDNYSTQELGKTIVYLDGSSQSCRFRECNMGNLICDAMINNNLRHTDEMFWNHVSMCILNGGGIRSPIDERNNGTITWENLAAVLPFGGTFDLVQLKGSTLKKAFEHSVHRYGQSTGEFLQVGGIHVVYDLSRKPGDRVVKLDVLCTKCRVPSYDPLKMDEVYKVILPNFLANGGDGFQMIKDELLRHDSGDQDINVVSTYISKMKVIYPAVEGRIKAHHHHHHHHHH
Assay: ELISA, coated CD73-ECD

Row | Binder | binding result
1 | B1 | binds
2 | B2 | binds
3 | B3 | binds
4 | B4 | binds
5 | B5 | binds
6 | B6 | binds
7 | B7 | binds
8 | B8 | binds
9 | B9 | binds
10 | B10 | binds
11 | B11 | binds
12 | B12 | binds
13 | B13 | binds
14 | B14 | binds
15 | B15 | binds
16 | B16 | binds
17 | B17 | binds
18 | B18 | binds
19 | B19 | binds
20 | B20 | binds
21 | B21 | binds

Target: T1, extracellular domain of human CD73 …
Assay: cell-based or functional assay

Row | Binder | IC50, inhibition of the catalytic function of recombinant human CD73 (CellTiter-Glo)
22 | B22 | 0.02 nM
23 | B23 | 0.038 nM and 0.06 nM

Target: T2, CD73 on the surface of human tumor cells (human, UniProt P21589 27-549)
T2 construct: whole, on cells; One entry for endogenous CD73 on all cell lines; the cell line is named under assay or readout; also called CD73 receptors on the surface of tumor cells; tumor cell CD73
T2 sequence (looked up): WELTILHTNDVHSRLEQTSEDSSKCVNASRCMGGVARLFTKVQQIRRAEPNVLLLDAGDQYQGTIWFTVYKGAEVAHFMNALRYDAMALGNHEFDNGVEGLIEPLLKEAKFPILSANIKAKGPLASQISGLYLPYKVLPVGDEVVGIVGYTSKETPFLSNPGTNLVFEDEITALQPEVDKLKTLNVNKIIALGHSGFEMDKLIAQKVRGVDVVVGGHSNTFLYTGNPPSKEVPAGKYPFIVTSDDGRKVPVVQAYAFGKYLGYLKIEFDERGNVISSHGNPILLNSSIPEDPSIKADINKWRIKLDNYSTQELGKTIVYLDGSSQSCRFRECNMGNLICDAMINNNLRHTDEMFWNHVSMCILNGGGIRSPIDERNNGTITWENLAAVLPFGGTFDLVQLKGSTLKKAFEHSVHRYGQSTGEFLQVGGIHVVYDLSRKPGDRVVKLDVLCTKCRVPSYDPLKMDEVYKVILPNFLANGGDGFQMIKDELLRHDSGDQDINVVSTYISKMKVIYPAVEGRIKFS
Assay: flow cytometry, NCI-H1299 cells

Row | Binder | binding result
24 | B1 | binds
25 | B2 | binds
26 | B3 | binds
27 | B4 | binds
28 | B5 | binds
29 | B6 | binds
30 | B7 | binds
31 | B8 | binds
32 | B9 | binds
33 | B10 | binds
34 | B11 | binds
35 | B12 | binds
36 | B14 | binds
37 | B15 | binds
38 | B17 | binds
39 | B18 | binds

Target: T2, CD73 on the surface of human tumor cells
Assay: flow cytometry, MDA-MB-231 cells

Row | Binder | EC50 [nM] | binding result
40 | B22 | 1.39 | 
41 | B24 | 0.43 | 
42 | B25 | 0.46 | 
43 | B26 | 0.43 | 
44 | B13 |  | binds
45 | B16 |  | binds
46 | B19 |  | binds
47 | B20 |  | binds
